Experimental data published in US11820827B2, “Methods of treating myelodysplastic syndrome and acute myeloid leukemia with nonfucosylated anti-CD70 antibodies” (Seagen Inc., priority 2019, dated 2023).

How the values were obtained:
[1] = test system: MOLM-13 CD70+ AML cell line; assay: ADCC assay with NK effector cells, MOLM-13; format: cell-based, human; conditions: effector-to-target ratio 10:1, 4 h
Procedure: ADCC activity was evaluated using two CD70+AML cell lines as an ADCC target (FIGS. 3A and 3B). The AML cell lines, MOLM-13 (FIG. 3A) and NOMO-1 (FIG. 3B), were labeled and mixed with titrations of test antibodies or isotype control. Effector cells were isolated from cryopreserved normal donor PBMC using the EasySep Human NK Cell Enrichment Kit (Stem Cell Technologies). Effector cells were added at an effector-to-target cell ratio of 10:1 with […]. After a 4-h incubation, the percent specific cell lysis was calculated.
AML cell lines were grown in appropriate growth medium while incubating at 37° C. in 5% CO2. Suspended cells were counted using ViCell XR cell counter. The required volume of cells was mixed with fresh growth medium and plated at seeding densities of 0.5 M/mL.
The following protocol was used to assess ADCC activity: • 1. Two vials of huPBMCs were thawed in the 37° C. waterbath and resuspended in 1% FBS-RPMI media. Cells were spun down and then NK cells were isolated using the EasySep human NK cell enrichment kit following the manufacturer's protocol. • 2. […] Absorbance per well was measured using the SpectraMax 190 plate reader at 490 nm and the acquired values were converted to text file and exported to Excel and into GraphPad Prism for further data analysis. • 9. […]

MV4-11 AML xenograft = assay: Tumor growth in the MV4-11 AML xenograft model, SEA-CD70, azacitidine, venetoclax (Example 11); format: in vivo, SCID mice; conditions: antibody 10 mg/kg Q4dx5, azacitidine 2 mg/kg Q1dx5 3 cycles, venetoclax 25 mg/kg oral Q1dx21; comparisons at day 39
Description: Tumor growth was reported as a volume and calculated as an average across animals within each treatment group (FIG. 11A). Immunocompromised SCID mice were implanted with 5×10e6 MV4-11 cells subcutaneously in the flank on day 0. When mean tumor size of 50 mm^3 (measured by using the formula: Volume (mm^3)=0.5*Length*Width^2, where the length is the longer dimension) was reached, mice were randomized into treatment groups of 10 mice per group. Stock concentrations of antibody and chemotherapy were diluted to the appropriate concentration and injected into animals at 10 μl/g of body weight. Tumor length and width, and animal weight were measured two times weekly throughout the study and tumor volume was calculated using the formula above. Animals were followed until tumor volume measured ˜1000 mm^3, at which time the animals were euthanized. Animals were dosed on various schedules based on treatment received; animals receiving antibody were treated with 10 mg/kg of antibody (Q4dx5), azacitidine-treated animals were dosed daily (2 mg/kg) for five consecutive days (Q1dx5) each week, for a total of 3 cycles (3 weeks); venetoclax was given at 25 mg/kg every day by oral gavage for 21 days consecutively (Q1dx21). Animal receiving combination of treatments received each treatment at the same dose and schedule as the single treatments.

CD8 T cells in PBMCs = assay: CD8 T cell depletion in PBMCs; format: cell-based, human; conditions: 24 hours
Procedure: At the end of the experiment cells were stained with Zombie Aqua Viability Dye and total viable Treg naïve and memory CD4 and CD8 T cell numbers were assessed. […] Fucosylated (WT Clone 13 IgG1) and nonfucosylated (SEA Clone 13 IgG1) antibodies targeting TIGIT were used as positive controls (FIG. 4E-4H).

[2] = target: T1, high affinity human FcγRIIIa receptor (158V) (Homo sapiens, UniProt P08637, F176V); assay: CHO-FcγRIIIa binding assay by flow cytometry (human receptor); conditions: compared with SGN-70
T1 construct: expressed in transfected cells; host or cells: CHO
T1 sequence (P08637 17-254 F176V): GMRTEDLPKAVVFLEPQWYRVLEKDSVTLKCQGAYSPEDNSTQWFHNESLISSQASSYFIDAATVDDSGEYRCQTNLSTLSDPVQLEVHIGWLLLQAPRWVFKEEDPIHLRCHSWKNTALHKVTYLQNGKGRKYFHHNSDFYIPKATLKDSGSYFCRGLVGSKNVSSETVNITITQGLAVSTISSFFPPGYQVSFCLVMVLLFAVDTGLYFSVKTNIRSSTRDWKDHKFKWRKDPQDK
Procedure: While BLI methodology is used to assess receptor affinity by monitoring binding kinetics, it is primarily set to monitor monovalent binding. To add to BLI data sets, flow cytometry was also performed (FIGS. 2A and 2B).
The CHO-FcγRIIIa binding assay was conducted as follows: • 1. Thaw cells: Cells were thawed on 11 Jun. 2019, and cultured in culture medium for 1 week to recover from freeze-thaw.
• 2. Wash: 60 million cells were washed 1× in PBS in 50-mL tubes. Cells were counted again and resuspended at 2.2×10^6/mL. Then 0.1 mL was pipetted per well • 3. Make 10× dilutions of antibody: The 10× dilutions were prepared (3 mg/mL, 1 mg/mL, 0.3 mg/mL, 0.1 mg/mL, 0.03 mg/mL, 0.01 mg/mL, 0.003 mg/mL, 0.001 mg/mL, and 0.0003 mg/mL in the dilution plate).
• 4. Aspirate: Wash was aspirated in wells and 100 μL of the corresponding antibody dilutions was pipetted with a multichannel pipet. The corresponding concentrations were 300, 100, 30, 10, 3, 1, […] μg/mL in triplicate. The concentrations were decreased vertically down the 96-well round bottom plate. • 5. […] Analyze samples: Samples were analyzed by flow cytometry in high throughput sampler (HTS) mode on the Attune. Median fluorescence intensity (MFI) was graphed (geomean), and equilibrium dissociation constant (KD) for each was calculated in PRIZM

B1: SEA-CD70: humanized, nonfucosylated monoclonal IgG1 antibody targeting CD70 (nonfucosylated h1F6) (antibody, chains of the INN, looked up, V domains shown)
VH: QVQLVQSGAEVKKPGASVKVSCKASGYTFTNYGMNWVRQAPGQGLKWMGWINTYTGEPTYADAFKGRVTMTRDTSISTAYMELSRLRSDDTAVYYCARDYGDYGMDYWGQGTTVTVSS
VL: DIVMTQSPDSLAVSLGERATINCRASKSVSTSGYSFMHWYQQKPGQPPKLLIYLASNLESGVPDRFSGSGSGTDFTLTISSLQAEDVAVYYCQHSREVPWTFGQGTKVEIK
modifications: nonfucosylated
- lysis of target cells in ADCC assay [1]: induced lysis of two CD70 positive AML cell lines in a dose-dependent fashion
- effect on tumor growth (MV4-11 AML xenograft): delay tumor growth
- CD8+ cell depletion (CD8 T cells in PBMCs; V/V high affinity donor): Neither fucosylated nor nonfucosylated anti-CD70 antibodies depleted CD8+ cells
- CD8+ cell depletion (CD8 T cells in PBMCs; low affinity (F/F 158) donor): Neither fucosylated nor nonfucosylated anti-CD70 antibodies depleted CD8+ cells
- binding affinity to human FcγRIIIa on CHO cells [2]: bound with higher affinity than SGN-70
